Test system: MS2 coat protein
Test: apparent KD of MS2 coat protein; designed switch direction (-1 OFF switch, 1 ON switch): 1; higher = weaker reporter binding
Summary of the method: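 Designed RNA switches sharing common flanks were transcribed on Illumina chips by stalled E. coli RNA polymerase. They were titrated with SNAP-549-labelled MS2 coat protein, from 0.7 or 1.5 nM doubling to 3 µM, in Tris-HCl pH 7.5 buffer with KCl, MgCl2, BSA, DTT, tRNA and Tween-20. Titrations ran without input, with 200 uM small-molecule ligand, or with an oligonucleotide input. The apparent KD of each design is the median over its clusters, after curve-fitting of normalised cluster fluorescence.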

[1] = input ligand: microRNA oligo, concentration not stated
[2] = Eterna round: R95, input ligand: FMN 200 uM
[3] = Eterna round: R95, input ligand: microRNA oligo, concentration not stated
[4] = Eterna round: R95, input ligand: none

## CUGAGCAGUCAAGGAUAUCACGUCGUUUAGACGUGAGAAGGUGAUUAAUACAUGAGGAUCACCCAUGUAAUACAUGAAGCUCAG [SSNG1/11-A3] (Eterna round: R96, puzzle: Same State NG 1)
Input ligand: FMN 200 uM
  apparent KD of MS2 coat protein: 20.9 nM
[1]
  apparent KD of MS2 coat protein: 30.9 nM
Input ligand: none
  apparent KD of MS2 coat protein: 42.5 nM

## AGUAGUGUAACAUGAGGAUCACCCAUGUAAGAAUAUGUAACCUAGGAUAUGGAGGUUAUGUUUGACCAGAAGGAGGAUUGUUUA [JR_SSNG3_Sub041] (Eterna round: R96, puzzle: Same State NG 3)
Input ligand: FMN 200 uM
  apparent KD of MS2 coat protein: 27 nM
[1]
  apparent KD of MS2 coat protein: 20.3 nM
Input ligand: none
  apparent KD of MS2 coat protein: 25.9 nM

## UCUUGGUUUUUGCUCGUUUUUUGUGUUGAACAUGAGGAUCACCCAUGUAUUGUACGGUCCGGUUUAGUGAUGAUCCA [JMF 76] (puzzle: Sensor for hsa-mir-208a)
[2]
  apparent KD of MS2 coat protein: 188 nM
[3]
  apparent KD of MS2 coat protein: 196 nM
[4]
  apparent KD of MS2 coat protein: 287 nM

## UAUUUAAUCAUAGGAUAUAGAGUGAAAUUUGGACUAGAAGGAUGUAACAUGAGGAUCACCCAUGUGGUAAGUGGGACACAGUGU [JR_SSNG1_Sub094] (Eterna round: R96, puzzle: Same State NG 1)
Input ligand: FMN 200 uM
  apparent KD of MS2 coat protein: 206 nM
[1]
  apparent KD of MS2 coat protein: 85.5 nM
Input ligand: none
  apparent KD of MS2 coat protein: 129 nM

## AAUUAAUUAAUUAAGUACAUGAGGAUCACCCAUGUAAGUGAUCAGGAUAUCAGCUCGAAUAGAGCUGAGAAGGGAUCCAUGUAC [SSNG3/15-A1] (Eterna round: R96, puzzle: Same State NG 3)
Input ligand: FMN 200 uM
  apparent KD of MS2 coat protein: 332 nM
[1]
  apparent KD of MS2 coat protein: 322 nM
Input ligand: none
  apparent KD of MS2 coat protein: 375 nM

## UUAGAAUUGCAAGGAUAUCUAAUGUAGAUAGUAAGAGAAGGUGCUUGAUAGUUACAUGAGGAUCACCCAUGUAUUUGGGUUUAU [JR_SSNG1_Sub057] (Eterna round: R96, puzzle: Same State NG 1)
[1]
  apparent KD of MS2 coat protein: 345 nM

## AGCUAAAACGAAGGAUAUACAAACAUGAGGAUCACCCAUGUAUACAUGAUUUAUUGUGAUCACAUGUAGAAGGUCGUACUAACA [SameState NG2 #19] (Eterna round: R96, puzzle: Same State NG 2)
[1]
  apparent KD of MS2 coat protein: 633 nM

## GUGGUGAAUUAAGGAUAUCGAGUCUAGAUGUUAAACAUGAGGAUCACCCAUGUGGGUUGCGGUGUCGAGAAGGUGGUUUACGGG [salish99_SSNG2_r04_510] (Eterna round: R96, puzzle: Same State NG 2)
Input ligand: FMN 200 uM
  apparent KD of MS2 coat protein: 63.2 nM
[1]
  apparent KD of MS2 coat protein: 84 nM
Input ligand: none
  apparent KD of MS2 coat protein: 72.3 nM

## AUUAAUUAAUUAAUACAUGAGGAUCACCCAUGUAAUAAGAUCAAGGAUAUCAGCUCGUUUAGAGCUGAGAAGGUGAUCACAUGU [SSNG3/17-B3] (Eterna round: R96, puzzle: Same State NG 3)
[1]
  apparent KD of MS2 coat protein: 246 nM

## AUUCGUUUGAUAGGAUAUCACUUUACAUGAGGAUCACCCAUGUUCACCACGCUGGUCCCUUAUACUGAGAAGGAUCUUGAUGAC [JR_SSNG2_Sub008] (Eterna round: R96, puzzle: Same State NG 2)
Input ligand: FMN 200 uM
  apparent KD of MS2 coat protein: 107 nM
[1]
  apparent KD of MS2 coat protein: 64.5 nM
Input ligand: none
  apparent KD of MS2 coat protein: 95.7 nM

## UAGAGAGGAAGCGAGGAUAUCGUGGGAGGAACAUGAGGAUCACCCAUGUGUGAUGUUGAGAGGAACGAGAAGGCGCAGGAAAGUA [JR_SS2_Sub078] (puzzle: Same State 2)
[2]
  apparent KD of MS2 coat protein: 83.3 nM
[3]
  apparent KD of MS2 coat protein: 83.1 nM
[4]
  apparent KD of MS2 coat protein: 143 nM

## UGGUACAUGGGAGGAUAUCAUGUAGAAACAUGAGGAUCACCCAUGUAGAUGGCAGCUUUGCUGAAUGAGAAGGCCCAUGUACCU [JL SSNG1 3.58] (Eterna round: R96, puzzle: Same State NG 2)
Input ligand: FMN 200 uM
  apparent KD of MS2 coat protein: 15.6 nM
[1]
  apparent KD of MS2 coat protein: 18.9 nM
Input ligand: none
  apparent KD of MS2 coat protein: 22.8 nM

## CGUGGGUGGCUGGAGGAUAUUCGAGUGGUAACAUGAGGAUCACCCAUGUGUCGCGCGGUACAUGAGGAGAAGGCUGGCGGCCGGC (puzzle: Same State 2)
[2]
  apparent KD of MS2 coat protein: 225 nM
[3]
  apparent KD of MS2 coat protein: 40.1 nM
[4]
  apparent KD of MS2 coat protein: 76.2 nM

From the supplement of paper PMC9170038
